Among the data in PMC3557450 are Kd values, retold here.

The test deals with soluble recombinant pMHC II I-E^d/λ2^315 (not stated | mouse). Nature of the test: SPR.

For the substance “soluble scTCR Vαβ 4B2A1 mutant PRS (L115P^linker/K199R^Vβ/L214S^Vβ)”, the Kd was determined as 7 µM. The same measure for “soluble scTCR Vαβ 4B2A1 mutant PS (L115P^linker/L214S^Vβ)”: 5.8 µM.
